Data from US20220153839A1 (NBE THERAPEUTICS, published 2022).

Key:
[1] = target: T1, Fr; test: ELISA on directly coated hFc fusion proteins of hROR1 domains; anti-His-HRP; A405
T1 construct: also called hFc-hROR1-Fr
Description: (§1) ELISA: For ELISA (FIG. 2), each well of a 96-well Costar 3690 plate (Corning, Corning, N.Y.) was coated with 100 ng anti-human IgG1 Fc in 25 μL coating buffer (0.1 M Na₂CO₃, 0.1 M NaHCO₃, pH 9.6) for 1 h at 37° C. After blocking with 150 μL 3% (w/v) BSA/TBS for 1 h at 37° C., hFc-hROR1 or hFc-mROR1 was captured following incubation at 100 ng/50 μL for 1 h at 37° C. Then 100 ng/50 μL of Fab was applied in each well at 37° C. 2 h later, 50 μL of a 1:1000 dilution of a mouse anti-His tag mAb conjugated to horse radish peroxidase (HRP) (R&D Systems, Minneapolis, Minn.) in 1% (w/v) BSA/TBS was used to detect the Fab. To determine the epitopes (FIG. 4), hFc fusion proteins containing different domains of hROR1 were coated directly, followed by incubation with Fab before detection by mouse anti-His tag mAb conjugated to HRP. Washing with PBS was repeated and colorimetric detection was performed using 2,2′-azino-bis(3-ethylbenzthiazoline)-6-sulfonic acid (Roche) as substrate according to the manufacturer's directions. The absorbance was measured at 405 nm using a SpectraMax M5 microplate reader (Molecular Devices; Sunnyvale, Calif.) and SoftMax Pro software (Molecular Devices).

[2] = target: T2, Fr + Ki (human, UniProt Q01973); test: as above
T2 construct: Frizzled and Kringle domains of the extracellular domain; also called hFc-hROR1-Fr-Ki
T2 sequence (Q01973 165-391 limits assumed): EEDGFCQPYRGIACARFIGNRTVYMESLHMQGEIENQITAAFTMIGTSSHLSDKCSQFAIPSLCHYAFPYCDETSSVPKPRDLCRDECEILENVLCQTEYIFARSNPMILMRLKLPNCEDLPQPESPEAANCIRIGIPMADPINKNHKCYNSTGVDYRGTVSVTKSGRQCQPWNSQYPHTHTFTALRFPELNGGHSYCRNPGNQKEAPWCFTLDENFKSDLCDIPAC
Description: as §1

[3] = target: T3, Kr (human, UniProt Q01973); test: as above
T3 construct: Kringle domain of the extracellular domain; also called hFc-hROR1-Kr
T3 sequence (Q01973 312-391 limits assumed): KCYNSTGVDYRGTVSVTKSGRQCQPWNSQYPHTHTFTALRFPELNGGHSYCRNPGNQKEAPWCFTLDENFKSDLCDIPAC
Description: as §1

[4] = target: T4, hFc-hROR2 (extracellular domain of human ROR2 fused to the Fc domain of human IgG1) (human, UniProt Q01974 34-403); test: ELISA as for hFc-hROR1; third bar series, keyed 'hFc-hROR1' a second time on the sheet, taken as hFc-hROR2 by legend paragraph 27
T4 construct: extracellular domain; not shown: Fc domain of human IgG1
T4 sequence (Q01974 34-403): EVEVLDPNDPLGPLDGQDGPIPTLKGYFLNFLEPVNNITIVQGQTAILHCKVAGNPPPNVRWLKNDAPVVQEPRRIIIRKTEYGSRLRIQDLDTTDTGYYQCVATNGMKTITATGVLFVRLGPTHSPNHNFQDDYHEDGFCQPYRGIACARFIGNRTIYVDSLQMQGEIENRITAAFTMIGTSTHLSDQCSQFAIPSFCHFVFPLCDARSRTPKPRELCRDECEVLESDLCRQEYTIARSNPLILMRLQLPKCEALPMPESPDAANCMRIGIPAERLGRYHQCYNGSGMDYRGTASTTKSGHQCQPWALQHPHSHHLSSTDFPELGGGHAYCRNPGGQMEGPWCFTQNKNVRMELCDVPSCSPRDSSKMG
Description: (§2) The binding of each chimeric rabbit/human Fab to hROR1 and mROR1 fused with human IgG1 Fc (hFc-hROR1 and hFc-mROR1) was analyzed by ELISA. hFc-ROR1 or hFc-mROR1 were captured by anti-human IgG1 Fc antibody immobilized on plate and then incubated with hROR1 specific Fabs comprising a His-tag via detection with mouse anti-His tag.
as §1

[5] = target: T5, hROR2 (human, UniProt Q01974); test: flow cytometry on 63-12 / hROR2 cells; anti-His Alexa Fluor 488
T5 construct: full length, on the cell surface; also called 63-12 / hROR2; ROR2 on T47D cells
T5 sequence (Q01974 34-943 limits assumed): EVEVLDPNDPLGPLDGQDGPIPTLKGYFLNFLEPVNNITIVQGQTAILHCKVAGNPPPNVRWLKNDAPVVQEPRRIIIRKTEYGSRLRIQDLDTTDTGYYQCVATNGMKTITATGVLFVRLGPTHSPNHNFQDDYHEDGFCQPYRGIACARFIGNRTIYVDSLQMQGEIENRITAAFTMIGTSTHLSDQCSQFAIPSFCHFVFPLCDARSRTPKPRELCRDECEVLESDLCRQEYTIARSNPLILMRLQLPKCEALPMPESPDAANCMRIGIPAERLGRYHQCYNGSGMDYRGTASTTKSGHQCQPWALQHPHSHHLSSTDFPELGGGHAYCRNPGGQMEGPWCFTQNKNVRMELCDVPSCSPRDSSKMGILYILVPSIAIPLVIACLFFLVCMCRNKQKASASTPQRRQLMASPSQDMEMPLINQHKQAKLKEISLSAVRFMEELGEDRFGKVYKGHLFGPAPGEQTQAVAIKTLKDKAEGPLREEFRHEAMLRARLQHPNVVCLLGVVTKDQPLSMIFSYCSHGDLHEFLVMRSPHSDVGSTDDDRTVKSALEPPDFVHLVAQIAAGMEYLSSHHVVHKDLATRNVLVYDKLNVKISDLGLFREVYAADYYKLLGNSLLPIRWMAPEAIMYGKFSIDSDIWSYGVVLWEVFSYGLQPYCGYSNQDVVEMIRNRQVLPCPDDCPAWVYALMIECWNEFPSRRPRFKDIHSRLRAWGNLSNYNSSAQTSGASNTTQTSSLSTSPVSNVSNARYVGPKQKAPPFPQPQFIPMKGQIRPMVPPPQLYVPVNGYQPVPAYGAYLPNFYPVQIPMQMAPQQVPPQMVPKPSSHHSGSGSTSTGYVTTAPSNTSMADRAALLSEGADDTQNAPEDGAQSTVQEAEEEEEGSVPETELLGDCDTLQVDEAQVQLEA
Description: Flow cytometry: Cells were stained using standard flow cytometry methodology. Briefly, for purified anti-ROR1 Fab (FIG. 3), 0.1-1×10⁶ cells were stained with 1000 ng/100 μL of Fab on ice for 1 h. After washing twice with ice-cold flow cytometry buffer (PBS containing 1% (v/v) BSA, 0.1% sodium azide and 1 mM EDTA), the cells were incubated with a 1:1000 dilution of a mouse anti-His tag mAb conjugated to Alexa Fluor 488 (Qiagen) in 100 μL flow cytometry buffer on ice for 30 min. For purified anti-ROR1 IgG1 (FIG. 8), 0.1-1×10⁶ cells were blocked by 4% goat serum for 15 min at room temperature and then incubated with 100 ng/100 μL of IgG on ice for 1 h. After washing twice with ice-cold flow cytometry buffer, cells were stained with a 1:500 dilution of goat anti-human IgG, Fcγ pAbs conjugated to APC (Jackson ImmunoResearch) in 100 μL flow cytometry buffer on ice for 30 min. For commercial goat anti human ROR1 polyclonal antibody (FIG. 8), 0.1-1×10⁶ cells were stained with 200 ng/100 μL of Ab on ice for 1 h. […] Finally, 4′,6-diamidino-2-phenylindole (DAPI) was added to a final concentration of 100 ng/mL to exclude dead cells from the analysis. Cells were analyzed using a FACSCalibur instrument (BD Biosciences) and FlowJo analytical software (Tree Star, Ashland, Oreg.).

[6] = target: T6, Ig (human, UniProt Q01973); test: ELISA on directly coated hFc fusion proteins of hROR1 domains; anti-His-HRP; A405
T6 construct: Ig domain of the extracellular domain; also called hFc-hROR1-Ig
T6 sequence (Q01973 42-147 limits assumed): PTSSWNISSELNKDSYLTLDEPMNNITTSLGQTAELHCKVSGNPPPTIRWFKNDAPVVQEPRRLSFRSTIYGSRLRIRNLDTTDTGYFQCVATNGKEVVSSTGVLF
Description: as §1

[7] = target: T7, hFc-mROR1 (extracellular domain of mouse ROR1 fused to the Fc domain of human IgG1) (human; mouse, UniProt Q9Z139 30-406); test: ELISA; hFc fusion captured by coated anti-human IgG1 Fc; anti-His-HRP; A405
T7 construct: extracellular domain; not shown: Fc domain of human IgG1
T7 sequence (Q9Z139 30-406): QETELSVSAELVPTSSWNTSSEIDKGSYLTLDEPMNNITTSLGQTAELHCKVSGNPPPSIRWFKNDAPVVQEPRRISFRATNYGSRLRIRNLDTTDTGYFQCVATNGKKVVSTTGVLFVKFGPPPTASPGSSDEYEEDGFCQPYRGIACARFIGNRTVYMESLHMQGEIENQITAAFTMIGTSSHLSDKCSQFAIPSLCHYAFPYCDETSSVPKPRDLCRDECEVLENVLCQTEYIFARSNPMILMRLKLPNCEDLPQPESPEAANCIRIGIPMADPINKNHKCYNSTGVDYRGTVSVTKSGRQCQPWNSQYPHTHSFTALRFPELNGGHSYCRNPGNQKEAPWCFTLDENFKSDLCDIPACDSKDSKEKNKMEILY
Description: as §2, §1

[8] = target: T8, hFc-hROR1 (extracellular domain of human ROR1 fused to the Fc domain of human IgG1) (human, UniProt Q01973 30-406); test: SPR (Biacore X100); hFc-hROR1 captured by anti-human Fcγ antibody on CM5; Fab as analyte; 1:1 Langmuir fit
T8 construct: extracellular domain; also called hFc-ROR1; not shown: Fc domain of human IgG1
T8 sequence (Q01973 30-406): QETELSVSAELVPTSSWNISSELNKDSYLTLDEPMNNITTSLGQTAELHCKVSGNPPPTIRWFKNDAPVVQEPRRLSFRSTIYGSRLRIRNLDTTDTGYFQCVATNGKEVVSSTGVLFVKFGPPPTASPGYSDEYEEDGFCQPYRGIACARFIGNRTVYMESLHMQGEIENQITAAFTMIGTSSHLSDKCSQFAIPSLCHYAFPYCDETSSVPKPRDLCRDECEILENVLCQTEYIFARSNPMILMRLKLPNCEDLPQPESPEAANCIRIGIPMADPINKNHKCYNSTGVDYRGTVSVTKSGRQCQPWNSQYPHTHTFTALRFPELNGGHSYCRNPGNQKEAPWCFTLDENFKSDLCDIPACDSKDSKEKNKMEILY
Description: (A) Shown are Biacore X100 sensorgrams obtained for the binding of each Fab to hFc-hROR1 captured by anti-human Fcγ antibody immobilized on CM5 chip after instantaneous background depletion. Fabs were injected at five different concentrations with the highest concentration indicated in table (B), one of the five concentrations was tested in duplicates. The equilibrium dissociation constant (Kd) was calculated from koff/kₒₙ (kₒₙ, association rate constant; koff, dissociation rate constant).
Surface plasmon resonance: Surface plasmon resonance for the measurement of the affinities of all Fabs to hFc-hROR1 and for epitope mapping studies were performed on a Biacore X100 instrument using Biacore reagents and software (GE Healthcare, Piscataway, N.J.). Anti-Human IgG (Fc) antibody was immobilized on a CM5 sensor chip following the instruction of Human Antibody Capture Kit (GE Healthcare, Piscataway, N.J.). The sensor chip included an empty flow cell for instantaneous background depletion. All binding assays used 1×HBS-EP+ running buffer (10 mM HEPES, 150 mM NaCl, 3 mM EDTA (pH 7.4), and 0.05% (v/v) Surfactant P20) and a flow rate of […]. […] The sensor chip was regenerated with […] from the Human Antibody Capture Kit without any loss of binding capacity. Calculation of association (kₒₙ) and dissociation (koff) rate constants was based on a 1:1 Langmuir binding model. The equilibrium dissociation constant (Kd) was calculated from koff/kₒₙ. For epitope mapping studies, each Fab was prepared at 500 nM alone in 1×HBS-EP+ running buffer and then injected in order as indicated in FIG. 5.

T1 sequence (chain, as listed by the source limits assumed): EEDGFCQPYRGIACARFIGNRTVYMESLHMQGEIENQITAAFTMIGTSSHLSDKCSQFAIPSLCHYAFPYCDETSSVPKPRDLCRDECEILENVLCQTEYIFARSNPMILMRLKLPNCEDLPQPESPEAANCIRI

binding result [1] | binding result [2] | binding result [3] | binding result [4] | binding result [5] | binding result [6] | binding result [7] | Kd [8] | koff [8] | kon [8] | Binder
no binding | no binding | no binding | no binding (tested: 100 ng/50 µL) | – | – | – | – | – | – | ERR1-TOP40 chimeric rabbit/human Fab (Fab, V domains shown, Chimeric rabbit/human Fab with His tag, expressed in E. coli (pET11a); kappa light chain) VH: QEQLEESGGRLVTPGTPLTLTCTASGFSLSNYYMSWVRQAPGKGLEYIGIISSSGSTYYASWAKGRFTISKTSSTTVDLKITSPTTEDTATYFCARLYVSDSTANLWGPGTLVTVSS VL: DIVLTQTPSSTSAAVGGTVTIKCQASQSIDSYLAWYQQKPGQPPKLLIYGASNLASGVPSRFSGSRSGTEYILTISGVQREDAATYYCLGGYPNYFHRTAFGGGTKLEIK
– | no binding | no binding | no binding (tested: 100 ng/50 µL) | no binding (tested: 1000 ng/100 µL) | no binding | no binding (tested: 100 ng/50 µL) | 5.81 nM | 0.00643 s⁻¹ | 1.11e+06 M⁻¹ s⁻¹ | XBR1-402 chimeric rabbit/human Fab (Fab, V domains shown, Chimeric rabbit/human Fab with His tag, expressed in E. coli (pC3C-His); lambda light chain) VH: QEQQKESGGGLFKPTDTLTLTCTASGFDISSYYMSWVRQAPGNGLEWIGAIGISGNAYYASWAKSRSTITRNTNLNTVTLKMTSLTAADTATYFCARDHPTYGMDLWGPGTLVTVSS VL: SYELTQLPSVSVSLGQTARITCEGNNIGSKAVHWYQQKPGLAPGLLIYDDDERPSGVPDRFSGSNSGDTATLTISGAQAGDEADYYCQVWDSSAYVFGGGTQLTVTG
no binding | no binding | no binding | no binding (tested: 100 ng/50 µL) | no binding (tested: 1000 ng/100 µL) | no binding | – | – | – | – | ERR1-306 chimeric rabbit/human Fab (Fab, V domains shown, Chimeric rabbit/human Fab with His tag, expressed in E. coli (pET11a); lambda light chain) VH: QEQLKESGGGLVQPGGSLKLSCKASGFDLSNYGVSWVRQAPGKGLEWIGYIDPTFDYTYYASWVNGRFSISRENTQNTVSLQINSLTPADTATYFCARWVYGVDDYGDGNWLDLWGQGTLVTISS VL: QFVLTQSPSVSAALGASAKLTCTLSSAHKTYTIDWYQQQQGEAPRYLMELKSDGSYTKGTGVPDRFSGSSSGADRYLIIPSVQADDEADYYCGTDYSGGYVFGGGTQLTVTG
no binding | no binding | no binding | no binding (tested: 100 ng/50 µL) | no binding (tested: 1000 ng/100 µL) | no binding | no binding (tested: 100 ng/50 µL) | 139 nM | 0.0654 s⁻¹ | 469000 M⁻¹ s⁻¹ | ERR1-TOP15 chimeric rabbit/human Fab (Fab, V domains shown, Chimeric rabbit/human Fab with His tag, expressed in E. coli (pET11a); lambda light chain) VH: QEQLVESGGRLVTPGGSLTLTCAASGFSPSSYWMSWVRQAPGKGLEWIGAIYVDSGSAYYASWAKSRFTISKTSSTTVDLKMTSLTTEDTAIYFCARDGWGSDVWGPGTLVTISS VL: SYELTQLPSVSVSLGQTARITCGGNSIGSKAVHWYQQKPGLAPGLLIYDDDERPSGVPDRFSGSNSGDTATLTISGAQAGDEADYYCQLWDSSAGAYVFGGGTQLTVTG
no binding | no binding | no binding | no binding (tested: 100 ng/50 µL) | no binding (tested: 1000 ng/100 µL) | – | no binding (tested: 100 ng/50 µL) | 145 nM | 0.0688 s⁻¹ | 475000 M⁻¹ s⁻¹ | ERR1-TOP54 chimeric rabbit/human Fab (Fab, V domains shown, Chimeric rabbit/human Fab with His tag, expressed in E. coli (pET11a); lambda light chain) VH: QSLEESGGRLVTPGTPLTLTCTASGFSLSDYYMSWVRQAPGEGLEWIGTIYGGSGNTWYATWAKGRFTISKTSTTVDLKITSPTTEDTATYFCARDFGLSTGGLWGPGTLVTISS VL: SYELTQLPSVSVSLGQTARITCGGNSIGSKAVNWYQQKPGLAPGLLIYDDDERPSGVPDRFSGSNSGDTATLTISGAQAGDEADYYCQLWDSSARAFVFGGGTQLTVTG
no binding | no binding | no binding | no binding (tested: 100 ng/50 µL) | no binding (tested: 1000 ng/100 µL) | no binding | no binding (tested: 100 ng/50 µL) | 1.11 nM | 0.000501 s⁻¹ | 451000 M⁻¹ s⁻¹ | ERR1-TOP43 chimeric rabbit/human Fab (Fab, V domains shown, Chimeric rabbit/human Fab with His tag, expressed in E. coli (pET11a); lambda light chain) VH: QSLEESGGRLVTPGTPLTLTCTVSGFSLSSYWMSWVRQAPGKGLEWIGAIYGSGNTYYASWAKGRFTISKTSTTVDLKITSPTTEDTATYFCARDVHSTATDLWGPGTLVTISS VL: SYELTQLPSVSVSLGQTARITCGGNNIGSKAVNWYQQKPGLAPGLLIYNDDERPSGVPDRFSGSNSGDTATLTISGAQAGDEADYYCQLWDSSAGAYVFGGGTQLTVTG
no binding | no binding | no binding | no binding (tested: 100 ng/50 µL) | – | – | – | – | – | – | ERR1-324 chimeric rabbit/human Fab (Fab, V domains shown, Chimeric rabbit/human Fab with His tag, expressed in E. coli (pET11a); kappa light chain) VH: QSLEESGGGLVQPGESLTLTCTVSGFSLSRNGMTWVRQAPGKGLEWIGIITSSGDKYYATWAKGRFTISKTSSTTVDLKMTSLTTEDTATYFCARGTVSSDIWGPGTLVTISS VL: ELVLTQTPSPVSAAVGGTVTINCQASQSVYGNNELAWYQQKPGQPPKLLIYRASILTSGVPSRFKGSGSGTQFTLTISNVQREDAATYYCLGGYVSQSYRAAFGGGTELEIL
